Values quoted from earlier work in publication PMC5419078.
Like-named read-outs stand apart in the source and are kept apart here.

Tests used:
[1] = biological target: etanercept ECD (Homo sapiens) (UniProt P20333)
infliximab [2] = experiment: SPR
[3] = biological target: etanercept ECD (Homo sapiens) (UniProt P20333); experiment: SPR
infliximab [4] = biological target: infliximab

Sequence of TNF (P01375 77-233): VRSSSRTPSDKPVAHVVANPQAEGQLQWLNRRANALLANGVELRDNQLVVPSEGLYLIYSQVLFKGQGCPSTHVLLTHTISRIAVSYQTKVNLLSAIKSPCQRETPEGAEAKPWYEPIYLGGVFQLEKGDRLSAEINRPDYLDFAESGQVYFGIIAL
Sequence of infliximab (main, as listed by the source, chain 1 of 2, other chains not shown): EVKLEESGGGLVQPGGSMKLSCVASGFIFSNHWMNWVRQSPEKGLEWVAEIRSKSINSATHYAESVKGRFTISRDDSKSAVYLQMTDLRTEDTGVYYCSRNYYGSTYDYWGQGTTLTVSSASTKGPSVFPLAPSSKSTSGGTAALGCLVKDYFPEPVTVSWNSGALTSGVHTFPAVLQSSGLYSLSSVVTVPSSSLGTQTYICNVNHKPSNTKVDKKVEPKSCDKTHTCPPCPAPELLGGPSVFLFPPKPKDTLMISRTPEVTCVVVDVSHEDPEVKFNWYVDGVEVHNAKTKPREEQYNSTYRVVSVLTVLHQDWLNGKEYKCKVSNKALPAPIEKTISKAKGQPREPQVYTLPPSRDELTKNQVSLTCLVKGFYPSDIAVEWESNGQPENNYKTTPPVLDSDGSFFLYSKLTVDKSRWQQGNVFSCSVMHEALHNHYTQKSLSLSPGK
Sequence of etanercept ECD (Homo sapiens) (P20333 23-257): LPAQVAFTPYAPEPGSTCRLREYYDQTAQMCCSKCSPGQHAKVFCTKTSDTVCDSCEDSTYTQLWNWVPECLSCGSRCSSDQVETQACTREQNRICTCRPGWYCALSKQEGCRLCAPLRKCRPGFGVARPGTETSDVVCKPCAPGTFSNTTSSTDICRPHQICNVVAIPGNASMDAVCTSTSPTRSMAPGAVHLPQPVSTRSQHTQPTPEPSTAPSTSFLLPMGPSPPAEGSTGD

Substance: TNF (from UniProt P01375)
- Kd [1]: 5.66 pM
- Kd (infliximab [2]): 0.0273 nM
- Kd [3]: 0.0118 nM
- Kd (infliximab [4]): 0.0886 nM
